Like-named read-outs stand apart in the source and are kept apart here.
Experiments:
Assay in all cases: cell-based or functional assay
IL-4Rα [1] = biological target: IL-4Rα (UniProt P24394)
Type I IL-4R = Type I IL-4R (UniProt P24394)
IL-4Rα [2] = biological target: IL-4Rα (UniProt P24394); remark: listed apart in the source

Chain of UniProt P24394 (P24394 26-825 limits assumed): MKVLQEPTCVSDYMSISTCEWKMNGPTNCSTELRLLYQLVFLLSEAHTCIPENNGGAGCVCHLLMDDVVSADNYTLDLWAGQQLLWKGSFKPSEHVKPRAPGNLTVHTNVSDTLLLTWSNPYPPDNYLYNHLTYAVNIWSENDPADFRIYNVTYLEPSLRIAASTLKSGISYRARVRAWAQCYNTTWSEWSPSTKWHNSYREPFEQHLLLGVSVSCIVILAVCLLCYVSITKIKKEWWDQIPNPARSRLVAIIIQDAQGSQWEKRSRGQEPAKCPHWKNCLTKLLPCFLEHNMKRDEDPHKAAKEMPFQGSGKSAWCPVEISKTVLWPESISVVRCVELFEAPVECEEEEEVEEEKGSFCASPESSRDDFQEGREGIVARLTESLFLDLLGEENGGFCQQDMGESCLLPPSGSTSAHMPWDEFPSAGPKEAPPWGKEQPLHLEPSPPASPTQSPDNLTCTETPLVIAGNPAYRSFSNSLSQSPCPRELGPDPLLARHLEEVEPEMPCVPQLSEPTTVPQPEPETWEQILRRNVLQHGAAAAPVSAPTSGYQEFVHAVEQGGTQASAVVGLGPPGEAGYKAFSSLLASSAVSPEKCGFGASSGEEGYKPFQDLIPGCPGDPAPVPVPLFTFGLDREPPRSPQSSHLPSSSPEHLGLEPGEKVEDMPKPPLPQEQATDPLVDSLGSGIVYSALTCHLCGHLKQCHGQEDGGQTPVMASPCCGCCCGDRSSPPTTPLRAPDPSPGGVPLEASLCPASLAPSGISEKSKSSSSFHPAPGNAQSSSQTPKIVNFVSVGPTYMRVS

**Q.** How did the IC50 (ng/mL), cell count by trypan blue exclusion, KCCL871 cells (IL-4Rα [1]) turn out when cpIL4-PE (from UniProt P11439 278-633) was run?
**A.** The IC50 (ng/mL), cell count by trypan blue exclusion, KCCL871 cells was 1.5 ng/mL.

**Q.** And the IC50 (ng/mL), cell count by trypan blue exclusion, KCCOR891 cells (IL-4Rα [1])?
**A.** The IC50 (ng/mL), cell count by trypan blue exclusion, KCCOR891 cells was 9 ng/mL.

**Q.** What about the IC50 (ng/mL), cell count by trypan blue exclusion, KCCTCM901 cells (IL-4Rα [1]) of the same molecule?
**A.** Its IC50 (ng/mL), cell count by trypan blue exclusion, KCCTCM901 cells is 0.7 ng/mL.

**Q.** And the IC50 (ng/mL), cell count by trypan blue exclusion, YCUM862 cells (IL-4Rα [1])?
**A.** Its IC50 (ng/mL), cell count by trypan blue exclusion, YCUM862 cells is 0.6 ng/mL.

**Q.** What about the IC50 (ng/mL), cell count by trypan blue exclusion, YCUM911 cells (IL-4Rα [1]) of the same molecule?
**A.** The IC50 (ng/mL), cell count by trypan blue exclusion, YCUM911 cells was 4.5 ng/mL.

**Q.** What about the IC50 (ng/mL), cell count by trypan blue exclusion, YCUT891 cells (IL-4Rα [1]) of the same molecule?
**A.** The IC50 (ng/mL), cell count by trypan blue exclusion, YCUT891 cells was 8 ng/mL.

**Q.** And the IC50, inhibition of [3H]-thymidine incorporation in HH cells (48 h) (Type I IL-4R)?
**A.** The IC50, inhibition of [3H]-thymidine incorporation in HH cells (48 h) was 362 ng/mL.

B1: cpIL-4BAD fusion protein (protein)
chain: MDTTEKETFCRAATVLRQFYSHHEKDTRCLGATAQQFHRHKQLIRFLKRLDRNLWGLAGLNSCPVKEANQSTLENFLERLKTIMREKYSKCSSGGNGGHKCDITLQEIIKTLNSLTEQKTLCTELTVTDIFAASGSFQIPEFEPSEQEDSSSAERGLGPSPAGDGPSGSGKHHRQAPGLLWDASHQQEQPTSSSHHGGAGAVEIRSRHSAYPAGTEDDEGMGEEPSPFRGRSRAAPPNLWAAQRYGRELRRMSDEFVDSFKKGLPRPKSAGTATQMRQSSSWTRVFQSWWDRNLGRGSSAPSQ
**Q.** With B1 as the molecule, how does the IC50 (ng/mL), cell count by trypan blue exclusion, KCCL871 cells (IL-4Rα [2]) read?
**A.** Its IC50 (ng/mL), cell count by trypan blue exclusion, KCCL871 cells is 0.5 ng/mL.

**Q.** What about the IC50 (ng/mL), cell count by trypan blue exclusion, KCCOR891 cells (IL-4Rα [2]) of the same molecule?
**A.** The IC50 (ng/mL), cell count by trypan blue exclusion, KCCOR891 cells was 0.15 ng/mL.

**Q.** And the IC50 (ng/mL), cell count by trypan blue exclusion, KCCTCM901 cells (IL-4Rα [2])?
**A.** The IC50 (ng/mL), cell count by trypan blue exclusion, KCCTCM901 cells was 1 ng/mL.

**Q.** And the IC50 (ng/mL), cell count by trypan blue exclusion, YCUM862 cells (IL-4Rα [2])?
**A.** Its IC50 (ng/mL), cell count by trypan blue exclusion, YCUM862 cells is 1.1 ng/mL.

**Q.** What about the IC50 (ng/mL), cell count by trypan blue exclusion, YCUM911 cells (IL-4Rα [2]) of the same molecule?
**A.** Its IC50 (ng/mL), cell count by trypan blue exclusion, YCUM911 cells is 0.2 ng/mL.

**Q.** And the IC50 (ng/mL), cell count by trypan blue exclusion, YCUT891 cells (IL-4Rα [2])?
**A.** The IC50 (ng/mL), cell count by trypan blue exclusion, YCUT891 cells was 11 ng/mL.

**Q.** What about the IC50, 5-day cell viability assay on Daudi cells, with 100x excess IL-4 (IL-4Rα [2]) of the same molecule?
**A.** Its IC50, 5-day cell viability assay on Daudi cells, with 100x excess IL-4 is > 1000 ng/mL.

**Q.** And the IC50, 5-day cell viability assay on Daudi cells, without excess IL-4 (IL-4Rα [2])?
**A.** The IC50, 5-day cell viability assay on Daudi cells, without excess IL-4 was 0.3 ng/mL.

**Q.** What about the IC50, 5-day cell viability assay on U 251 cells, with 100x excess IL-4 (IL-4Rα [2]) of the same molecule?
**A.** Its IC50, 5-day cell viability assay on U 251 cells, with 100x excess IL-4 is > 1000 ng/mL.

**Q.** And the IC50, 5-day cell viability assay on U 251 cells, without excess IL-4 (IL-4Rα [2])?
**A.** The IC50, 5-day cell viability assay on U 251 cells, without excess IL-4 was 0.3 ng/mL.

**Q.** What about the IC50, colony formation assay on U 251 cells (10 days) (IL-4Rα [2]) of the same molecule?
**A.** The IC50, colony formation assay on U 251 cells (10 days) was 5 ng/mL.

**Q.** And the IC50, killing of Daudi cells (viable cell count, trypan blue exclusion, 5 days) (IL-4Rα [2])?
**A.** The IC50, killing of Daudi cells (viable cell count, trypan blue exclusion, 5 days) was 0.1 ng/mL.

**Q.** And the IC50, killing of U 251 cells (viable cell count, trypan blue exclusion, 5 days) (IL-4Rα [2])?
**A.** The IC50, killing of U 251 cells (viable cell count, trypan blue exclusion, 5 days) was 0.6 ng/mL.

From US20160215035A1
